Experimental data as given in the DeepSol protein solubility set.

Test: soluble on expression in E. coli; label from the status in PepcDB or PDB records

| Sequence | soluble on expression in E. coli |
| --- | --- |
| VVNKKIAYLGDEKPITIWTSLDNVTVIQLEKDETISYITTGFNKGWSIVPNSNHIFIQPKSVKSNLMFEKEAVNFALMTRDYQEFLKTKKLIVDAPDPKELEEQKKALEKEKEAKEQAQKAQKDKREKRKEERAKNRANLENLTNAMSNPQNLSNNKNLSEFIKQQRENELDQMERLEDMQEQAQANALKQIEELNKKQAEETIKQRAKDKINIKTDKPQKSPEDNSIELSPSDSAWRTNLVVRTNKALYQFILRIAQKDNFASAYLTVKLEYPQRHEVSSVIEEELKKREEAKRQKELIKQENLNTTAYINRVMMASNEQIINKEKIREEKQKIILDQAKALETQYVHNALKRNPVPRNYNYYQAPEKRSKHIMPSEIFDDGTFTYFGFKNITLQPAIFVVQPDGKLSMTDAAIDPNMTNSGLRWYRVNEIAEKFKLIKDKALVTVINKG | not soluble |
| WYKDRGVYHWLSSGQEGTDIPYLGSSVFCSELYEKQMELIRLQHQKLHETEAKLDARVTYMNQWVHQVKTPLSVINLIIQEEDEPVFEQIKKEVRQIEFGLETLLYSSRLDLFERDFKIEAVSLSELLQSVIQSYKRFFIQYRVYPKMNVCDDHQIYTDAKWLKFAIGQVVTNAVKYSAGKSDRLELNVFCDEDRTVLEVKDYGVGIPSQDIKRVFDPYYTGENGRRFQESTGIGLHLVKEITDKLNHTVDISSSPGEGTSVRFSFLTK | not soluble |
| YDRRVHRFRKNWERIIPTHSKIQYAGNMGLLSFGTGWDYGKRNQWETDLLLGFIPKYSSKKAKVTMTLKQNYMPWSINLGKGFSTEPLSCGLYLNTVFGNQFWVSEPERYPKGYYGFSSKVRIHVFMGQRLTYDIDPNRRFLAKSVTFFYEISTCDLYLISGVTNSYLRPRDYLSLSFGLKFQWL | not soluble |
| YFSAICQARKNVYIETPYFIPDESLLKAIKSAALSGVDVRIIFPKIADHKIVNIASYSYFEEILRAGGKVYLYNKGFIHSKVVIIDDKIASAGTANMDLRSFMLNFEVNAFIYDEEVIRVMTDDFFEDLSYCEELNLEVFKNRNIIQKIKESVARLFSPIL | soluble |
| YIWIEHRTIHQHVDESQSSLHHTEKQIQTFITQHNNSFQELDLTNHHDVTATKRELLKLIHQQPATLYYELSGPNQFITNNYEHLNTKNMYLFSTHQLKFNNSTYMLKIYMANTPRLSEIKKDSRQFALIVDQYDNILYANDDRFTIGEKYRPQQFGFMNESVKLNHADHRLIIYKDIHENIED | not soluble |
| YMYKKYDILKGDKSERVLDRRFITNLCMNGVPMGLQYSITAIGSTILQAAVNTLGSTYVAAMTAGSKMFNFTCCPFDALGSTMATYAGQNVGAAKIKRLGQGVR | not soluble |
| YNVLENEELRFQLTIQKEQIEFQRNKYEQLGAAYKNIRSFMHDTKKHLFYIENCVTEKKYDDIIPYSKEIMHDLESRYCTINTGNLVIDAFVSNLLLQTKAQGITLHTNLKFDKATIPVNDYHLTIILGNLLDNALNACRGQIGANIKVAVRTVDGTFTIHVANTYVIADPDKAPDDFEKIDFIHGYGLKNVKDSAEACGGFCVIHHENDVYSATVIIPILNP | not soluble |
| YRQSQSRAARLRLLVDTGQELIQLPPEAMRKCVLQRACAFVAMDHGLLLEWGADNGVQTTARHGSKERLSTLETTADPLAIGPQWLERPGTHLPCVLLLPLRGADEGSFGTLVLANSVAISAPDGEDIESLQLLATLLAAHLENNRLLEALVARDRT | soluble |
| YTDYEERRLIHEVPIIVPRGTGKTTLGSAIAEVGQIIDGEWGADIQLLAYSREQAGYLFNASRAMLSNEESLLHYMREADILRSTKQGILYETTNSLMSIKTSDYESLDGTNAHYNIFDEVHTYDDDFIKVVNDGSSRKRKNWITWYISTNGTKRDKLFDKYYNIWVDILDDKIINDSVMPWIYQLDDVSEIHDPDMWQKAMPLLGITTEKETIARDIEMSKNDPAQQAELMAKTFNLPVNNYLAYFSNEECKGWSDKFDESLFVGDDERNARCVIGIDLSDVNDICSISFMVVRGEERHYLNKKFMPRHTIETLPKELRDKYTEWELSGMLHVHELDYNDQAYIFEELRQFMSDNRILPVAVGYDRYNARELIRLFNDYYGDICHDIPQTVKSLSNPLKVYKEKAKMGKIIFDDPVATWNHANVRVKIDANNNIFPNKEKAKEKIDVFASQLDAFICYENFKEDLSYYFD | not soluble |
